The results in this text go back to a protein production outcome set (Wang et al. 2014).
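Further: failed if final PepcDB status was selected cloned or expressed and not failed if soluble or beyond.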

A short description of this data set: label from the status in PepcDB records.
“MAMSGTYVTDVPLKGSAEKHYKRWRSENHLVPEAIGHLIQGVTVHDGDWDSHGTIKIWNYTRDGKEEVLKERIEMDDENMAVTINGLDGHVMEVLKVYVTTLHFIPESKDGCVCKITMVWEKRTEDSPEPIEFMKFVEQMIAHMDDHILQNQE”: the protein production entry is “failed”.
The same measure for “MANYYEPPASGNRRDAVKGYNSGSFDDSAGDQSQTNDYQLKIKKSKSVPNADRAASRSWSFSDPESRRKRRVAGYKVYSVEQKMKGSIRKSFKWFKDIIGIS”: “failed”.
As for “NKSYRSTEQITNFAKALLPDGDQIQAFTRKGDLPKVMIRYGEDAALSSLRSEVEHQLKATNTVAVLTKDLAESKQVYQYLKRYTVTTLMADSDRTMPQGVIVMPIYLAKGLEFDAVVAYDVSATNYPDADSVGILYTIASRAMHHLTLLSIGDVSPLIAQLDPTLFTIEHQVRV”, the protein production result is listed as “not failed”.
Consider “MIMASSAAASISMITLRNLSRNHQSHQSTFLGFSRSFHNQRISSNSPGLSTRARSTTSSTGGFFRTICSSSSNDYSRPTKIQELNVYEFNEGDRNSPAVLKLGKKPDQLCLGDLVPFTNKLYTGDLTKRIGITAGLCVLIQHVPEKKGDRFEASYSFYFGDYGHISVQGPYLTYEDTFLAITGGSGVFEGAYGQVKLRQLVYPTKLFYTFYLKGVAADLPVELTGKHVEPSKEVKPAAEAQATQPGATIANFTN”, for which the protein production result was “failed”.
Regarding “MDIHQELKELSKFLSEYSTSLMAVGVQTSRIVRNTSRIAESFGFFCDMTIFQKTIIMTLRDADNSHSYSTVNKIKPMGLNFAINSALSTLSWEAYDEHLSLSELQRRYHEIVSKPRESKWLVLILVAFANASFCRLFQGDFISMGIVFVATLAGFFVRTELMGRHWNHLAIFIISSFIASMIGSTGYLMHWGDTPDMALGTSVLYLIPGVPLINAIMDIIDGHVLAGTSRFINACLLIICIAIGLSMTLLITGISTL”, the protein production entry is on record as “failed”.
For the sequence “LRSNRVTQHPPLQLSLPVHLPDDETFTSYYPAAGNDELIGALKSAASGDGVQAIYLWGPVKSGRTHLIHAACARANELERRSFYIPLGIHASISTALLEGLEQFDLICIDDVDAVAGHPLWEEAIFDLYNRVAEQKRGSLIVSASASPMEAGFVLPDLVSRMHWGLTYQLQPMMDDEKLAALQRRAAMRGLQLPEDVGRFLLNRMARDLRTLFDVLDRLDKASMVHQRKLTIPFVKEMLRL”, the protein production entry is recorded as “not failed”.
To “TPHLVNLNEDPLMSECLLYYIKDGITRVGQADAERRQDIVLSGAHIKEEHCIFRSERSNSGEVIVTLEPCERSETYVNGKRVSQPVQLRSGNRIIMGKNHVFRFNHPEQARAEREKT” belongs “not failed”.
For “MGIENFTAKIVGLSIVSLLVVLMFLYKLIYIIPLIFIVLLVFQSEKKIFAFLSKNTKQIQPYSIEDGVFYNEKNASAVLIIDDIQMDYKDFTNSNLRSFISSFHKILDIAKDINIVLKRESLDKNVYIESLSQKIQALRIMIDSDPSNEKAKRKLELMETIISRIESGENPFRYEMYIIINSRDKNSALSTASMIRQGLEGLGIKTRLATLHEIQKLVRDFFHSKLNLNKIALPTQIPYLTPISVEKKPKSSIIIDGVLLGKDINNNGLVFWNITKSQNSHLLIVGPTGSGKTEFLIWLSTILNLIYGGTVILFDVKGDIKYRLSMYKVPFQLINPLFYRLGLLDEYDIPIRIKLLQIEKILLNSFRLSKFNSSILYNYLNRLIDISYLKYRIKWKDLEKYLSEIDDVQLKYYLSKLINILSSMEDSELPPLLHGVNENEINLIDLTLIKSEEIKRLIIYTLIQELYNKFSLEKIYDKPRVFLVLDEAWTILKNESEDYPIVADLIKRGRGYGISIIMATQNLEDLGDLANIYLDNIGVSVFMNNGDKKFWEEIRRFVNVDNDTLSNNLIFMNRGEALVRFLGDPRPVIIKLNTLAGSSF”, the protein production entry is given as “failed”.
As to “MWIAVSAVNLALAVILGAFGAHGLKAYASPAKLAWWQTATDYFFYHALGLLVLGVISKTYTVLPIKSSFILIQIGILFFCGSLYLMALGLPRGFGAITPIGGAFMILGWIVLAWNAVKYAK”, the protein production entry is recorded as “failed”.
As to “MVFLIVPILTILGLSIHEAIGTSLACIAISSFSSAYTHLKKGKVHIKVVILKELFSIPAAVLGAYLTNDINEKILRVAFSMLLFYLAVRLTVKRRAKDSKEAKIHYERVPLVGVASGFLSGLLGISGGILNVPLFTIFVGIPIKYSIGTSSLALFFTALAGAITHLKEGNVVLSIALALAPGLIVGAYVGAIVSHRIHSDKLRVLFSALLLIIGVRMLV”, the protein production entry is given as “failed”.
Turning to “MASRLGKKRLFLVWSCLVSILPGMAQTEKLIDYVNPFVGTDGYGNVYPGAQIPFGGIQMSPDTDSKYYDAASGYKYNHSTLLGFSLTHLSGTGIPDLGDFLFIPGTGEMKLDPGTREEPEKGYRSRYSHEKEWASPNYYAVELSDYGVKAEMTSGVRSGMFRFTYPQSDKAFIMIDMNHTLWQSCEWANLRMENDSTITGYKLVKGWGPERHIYFTATFSKKLTGLRFMQNKKPVIYNTSRFRSSYEAWGKNLMACISFDTKAGEEVIVKTAISSVSTNGAKNNMAELAGLAFDELKAKGEALWEKELGKYTLTADRKTKRTFYTSAYHAALHPFIFQDVDGQFRGLDKNIEKAEGFTNYTVFSLWDTYRALHPWFNLVQQEVNADIANSMLAHYDKSVEKMLPVWSFYGNETWCMIGYHAVSVLADMIVKGVKGFDYERAYEAMKTTAMNPNYDCLPEYRMMGYVPFDKEAESVSKTLEYAYDDYCMAQAAKALGKEDDYRYFLNRALSYQTLIDPETKYMRGKDSQGNWRTPFTPVAYQGPGSVNGWGDITEGFTVQYTWYVPQDVQGYINEAGENWFRNRLDELFTVELPDDIPGAHDIQGRIGAYWHGNEPCHHVAYLYNYLKEPWKCQKWVRTIADRFYGDTPDALSGNDDCGQMSAWYMFNCIGFYPVAPSSNMYNIGSPCVEAITVRMSNGKVIEMVADNWSPKNVYVKELYVNGKKYDKSYLKYEDIRDGVKLRFVMSSKPNYKRAVSDEAVAPSLSLPGKTMKYQANFSEKKKSGNPVFKGWYADPEGVVFGDEYWIYPTYSAPYDEQTFMDAFSSKDLVNWTKHPKVISKENISWLRRALWAPAVLSANDKYYLFFGANDIQNNNEVGGIGVATSDSPAGPFKDALGKPLIDKIVHGAQPIDQFVFKDDDGQYYMYYGGWGHCNMVKMAPDLLSIVPFEDGTMYKEVTPENYVEGPFMLKRNGKYYFMWSEGGWGLPNYSVAYSISDSPFGPFKRVGKILEQDLSVATGAGHHSVIKGAGEDEWYIVYHRRPLGETAANSRATCIDRMYFDENGYIKPVKMTFEGVLPSPLDSTK”, the protein production entry is listed as “failed”.
For “MKNMVIVLTGVTVVAGALLGYVNELTKEPIAQANAKALSDAIAIVVPGFDNNPAEAPETIELEGVTYKIYKATKGGEFIGAAVESSANGFGGALNVLVGFDKEGNIIDYSLLSHAETPGLGSKAADWFKKGGKGDITGMNPGQKALVVNKDGGQIDAITASTITTRAFLKAVNNAYAAYSGQNVDGSSGATQQVSETAADDPKAAKAQCEGTQDCCGQACDSAACKAACGGKCDPANCDKADCKKAECPKQDCKNKK”, the protein production entry is “failed”.
The same measure for “MDDRTEYDVYTDGSYVNGQYAWAYAFVKDGKVHYEDADVGKNPAAATMRNVAGEIAAALYAVKKASQLGVKIRILHDYAGIAFWATGEWKAKNEFTQAYAKLMNQYRGIYSFEKVKAHSGNEFNDYVDMKAKSALGIRDLEHHHHHH”: “not failed”; for “ERLETAQDLLELEGITPELAAKLAERQVHTRDDLAELSTDELAEIAGLQEEEASDLIMRARAHWFDEE”: “failed”; for “MRYSPRKQCYFALFFFAFVALCVGVIELLHQNQQDLQQERVQVEAKEQLSILRSNLEAVLMADIYKASTLATLITLLPNSEEEELSIAADRILNKSKHITVIGIAENDVISHIFPTQGNERVLGLDYRKVPAQWVQVQKAKDIQEIFIAGPVSLVQGGRGLIVRVPVFRDPPINKEYWGVISAVVDFDGLMRETGVFDFSYHYPLTIRGYDSGGEYGDMFFGDPNQTGKLYAKEHVHFPYGGWSMAAYAGGQLEQQISWFELNIVRIIGYPILIALSIALIVIYRLYIIADDRALHDELTHLPNRRYFMQSYKQQFEIAKRYKKRYSFALINIDLDRFKHINDTFGHDAGDKVLIATAERIKSSLRRSDMVARMGGDEFLVVVHNLGMEEHVQKLLQKLRLALCSTPVIYDEELIYLRVSIGYAIFDPQMTSPEQMMKIADERMYQQKHGGLEHHHHHH”: “not failed”.
Regarding “MSQELKNKVQFLAKELNQLVNILYEESKKQTPLTLWLLCKNTFVYLYRTVKTVRGVAGVLLVLVPGSLMAYTTDAFRAIGELPWTSITVLLGGMSFFLFAYLRHLVLDEMSRPGSDLFHIQVYEKRKPDEYMSLIALAKERDYVESIAADIEQVTSTPSLPNLLELLKEKEQDIEEKDRVIEDLLEIVEDNEEHTLMFKEKYEILLDFVFQLKSKLNLLVHDQFSLDSIDFGSDYSLYKVGEEGLEFVDSYGVNKAEMEDFIPFTEKGNPYILAIERDYKDPLKVGDLISWKRTLQDGSQWVLSLHLNENSREKLNDVTESGKLNVTITQELLWICCELLNKFSPNPTKKGEE”, the protein production result is given as “failed”.
With “MASFSAETNSTDLLSQPWNEPPVILSMVILSLTFLLGLPGNGLVLWVAGLKMQRTVNTIWFLHLTLADLLCCLSLPFSLAHLALQGQWPYGRFLCKLIPSIIVLNMFASVFLLTAISLDRCLVVFKPIWCQNHRNVGMACSICGCIWVVAFVMCIPVFVYREIFTTDNHNRCGYKFGLSSSLDYPDFYGDPLENRSLENIVQPPGEMNDRLDPSSFQTNDHPWTVPTVFQPQTFQRPSADSLPRGSARLTSQNLYSNVFKPADVVSPKIPSGFPIEDHETSPLDNSDAFLSTHLKLFPSASSNSFYESELPQGFQDYYNLGQFTDDDQVPTPLVAITITRLVVGFLLPSVIMIACYSFIVFRMQRGRFAKSQSKTFRVAVVVVAVFLVCWTPYHIFGVLSLLTDPETPLGKTLMSWDHVCIALASANSCFNPFLYALLGKDFRKKARQSIQGILEAAFSEELTRSTHCPSNNVISERNSTTV”, the protein production entry was “failed”.
Consider “RNGGTIGGADIIAKLLEDKLGLQLNQALLGIDLFVMIVSLTYISLPQMMYALIASFMYGQIVRLVQQGGYSARGIFIVSEQAEKIARFIMDELGRGVTYLTGEGAYSGRRKKVIYVALGRRDIRELKAFLTQVDPNAFITYFDVNEVNSPEFLTIKSKYHKKRK”, for which the protein production entry is “failed”.
Take “MLAALFSIAAVFGFHAEDEPYIVTLPWYELFSSAAKAVAGTIHNPFGLFGARVSVFFIRVLLGYPSVMPLFGFLVLGWHLFRAKPLGPGLFFLVYTLLMALDLSAMFGLSMLPLADLMSGATGRMMASFLSTVIGYPGAWALTAIIAAVLTFYMGRDFIVDTIAGVSGFFGKLLATVQAIRAERHRKRREKEEMRVRKKAERMAAVLEKEQRKRDKKAQRARKAGDASKQKAAPFENSPETPAPVMDVEPAPPLLNPAVSEPVVIPAEVEEIRTPEPAPVRPEEGPEMIIKPGVQEAEADLDERALKVRTHDHVKYRFPSIDLLRRPKDEDESYDERHLAETKDRLLEKLRIYKIDVIRIATTVGPRVALFELELAPEVKISRIKSLENDLAMAMASSSGGIRIIAPIPGKNAIGVEIPISKPRPVVMRSVLQVEKFKNNSMALPIVLGKSISNEVIVDDLAAMPHLLIAGATGAGKSVAINVLLTSLLYSKKPDEVKFVLIDPKRVELKPYKLLKDHFLPKIPGMEEQIIVTDPQKAVSALRSVVREMEHRYELLEQCGVRNIGEYNRKMKDEAMFYLVVVVDELADLMITAGREVEEPITRLAQMARAVGIHLIVATQRPSVDIITGIIKANFPSRIAFQVASKVDSRTILDVSGAEQLLGSGDMLFQSAKMSKPQRIQCPYISLSEVDAITEFIGQQPPLRAECMLPEPPSSSGNGSSSGFDQDRGRRDSMFEEAARLVVMHQQASVSLLQRRLRLGFSRAGRVMDQLEQSGIVSAGDGSKPREVLVKNEDSLELLLRNLD”: the protein production entry is given as “failed”.
